The text below walks through data of publication PMC3582566.

This test has as its target S. mutans VicK (aa31-450), entire intracellular region (S. mutans). The test is described as follows: SEC-MALS; VicK at ~4 mg/ml resolved on a size exclusion column (Shodex KW-802.5) in 50 mM HEPES (pH 7.0), 200 mM Na2SO4 at 25°C; DAWN HELEOS II laser photometer; BSA as control.

Substance “S. mutans VicK (aa31-450), entire intracellular region (domain or fragment)” displayed a stoichiometry N of 2.
